The koff is the first-order rate constant of dissociation. By kon is commonly meant the rate constant with which the complex forms.

In assay [1] the target is rhesus neonatal Fc receptor (FcRn) (rhesus) (UniProt Q6V7J5). Nature of the assay: BLI; Octet RED384; receptors loaded on HIS1K or SAX biosensors and probed into mAbs in a 2-fold dilution series (20, 10, 5, 2.5, 1.25 μg/mL); pH 6.0; 1:1 model; apparent.
Assay [2] has as its target human neonatal Fc receptor (FcRn) (human) (UniProt P55899). The description is as above.
In assay [3] the target is human Fc gamma receptor IIB (FcγRIIB) (human) (UniProt P31994). Nature of the assay: BLI; Octet RED384; receptors loaded on HIS1K or SAX biosensors, probed into mAbs in a dilution series (2000, 100, 50, 25, 12.5 ug/mL [sic]); pH 7.4; 1:1 model; apparent affinity.
For assay [4], the target named is human Fc gamma receptor IIIB, polymorphism NA1 (human) (UniProt O75015). The description is as above.
The target of assay [5] is human Fc gamma receptor IIA, polymorphism H167 (human) (UniProt P12318). Described as above.
Assay [6] concerns the target human Fc gamma receptor IIIB, polymorphism NA2 (human) (UniProt O75015). The assay is described as above.
The target in assay [7] is human Fc gamma receptor IIA, polymorphism R167 (human) (UniProt P12318). The description is as above.
The target of assay [8] is human Fc gamma receptor I (FcγRI) (human) (UniProt P12314). The assay is described as above.
Assay [9] addresses human Fc gamma receptor IIIA, polymorphism V176 (human) (UniProt P08637). Described as above.
Assay [10] deals with human Fc gamma receptor IIIA, polymorphism F176 (human) (UniProt P08637). Described as above.
Assay [11] addresses rhesus neonatal Fc receptor (FcRn) (rhesus) (UniProt Q6V7J5). Nature of the assay: BLI; Octet RED384; receptors loaded on HIS1K or SAX biosensors and probed into mAbs in a dilution series (2000, 100, 50, 25, 12.5 μg/mL as printed); pH 7.4; 1:1 model; apparent.
Assay [12] concerns the target human neonatal Fc receptor (FcRn) (human) (UniProt P55899). The assay is described as above.

human Fc gamma receptor I (FcγRI) (human), sequence (P12314 16-292): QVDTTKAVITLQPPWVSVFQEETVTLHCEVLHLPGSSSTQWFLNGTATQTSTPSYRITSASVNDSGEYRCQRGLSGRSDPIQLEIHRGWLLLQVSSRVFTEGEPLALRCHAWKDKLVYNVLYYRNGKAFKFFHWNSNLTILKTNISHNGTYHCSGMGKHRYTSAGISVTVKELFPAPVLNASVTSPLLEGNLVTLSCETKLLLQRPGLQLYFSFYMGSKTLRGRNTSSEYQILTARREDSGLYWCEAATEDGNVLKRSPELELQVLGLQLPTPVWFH
human Fc gamma receptor IIIB, polymorphism NA1 (human), sequence (O75015 17-233): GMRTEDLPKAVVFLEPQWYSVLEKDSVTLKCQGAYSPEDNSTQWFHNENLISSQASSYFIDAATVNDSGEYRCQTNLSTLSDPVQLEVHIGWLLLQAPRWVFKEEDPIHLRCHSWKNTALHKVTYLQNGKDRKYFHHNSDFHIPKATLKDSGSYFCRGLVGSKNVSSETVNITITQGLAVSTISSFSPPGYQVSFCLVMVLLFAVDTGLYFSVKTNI
human Fc gamma receptor IIA, polymorphism H167 (human), sequence (P12318 34-217): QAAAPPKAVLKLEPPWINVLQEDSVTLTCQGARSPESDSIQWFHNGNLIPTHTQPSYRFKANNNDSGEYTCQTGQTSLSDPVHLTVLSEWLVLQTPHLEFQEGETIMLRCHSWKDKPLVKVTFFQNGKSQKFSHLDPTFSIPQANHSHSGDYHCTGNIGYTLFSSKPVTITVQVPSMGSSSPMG
human Fc gamma receptor IIA, polymorphism R167 (human), sequence (P12318 34-217 H167R): as the sequence (P12318 34-217) above, with H134R counted along it
human neonatal Fc receptor (FcRn) (human), sequence (P55899 24-297, chain 1 of 2): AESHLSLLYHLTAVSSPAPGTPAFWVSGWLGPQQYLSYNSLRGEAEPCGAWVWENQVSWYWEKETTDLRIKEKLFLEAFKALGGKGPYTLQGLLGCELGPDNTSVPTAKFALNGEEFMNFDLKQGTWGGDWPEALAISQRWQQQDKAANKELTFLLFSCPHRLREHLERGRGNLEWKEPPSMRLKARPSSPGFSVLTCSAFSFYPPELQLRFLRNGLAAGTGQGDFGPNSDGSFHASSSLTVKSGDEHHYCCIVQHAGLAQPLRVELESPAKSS
human neonatal Fc receptor (FcRn) (human), sequence (P61769 21-119, chain 2 of 2, further chain): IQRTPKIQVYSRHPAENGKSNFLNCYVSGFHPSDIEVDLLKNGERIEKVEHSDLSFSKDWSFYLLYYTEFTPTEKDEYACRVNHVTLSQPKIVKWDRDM
human Fc gamma receptor IIB (FcγRIIB) (human), sequence (P31994 43-217): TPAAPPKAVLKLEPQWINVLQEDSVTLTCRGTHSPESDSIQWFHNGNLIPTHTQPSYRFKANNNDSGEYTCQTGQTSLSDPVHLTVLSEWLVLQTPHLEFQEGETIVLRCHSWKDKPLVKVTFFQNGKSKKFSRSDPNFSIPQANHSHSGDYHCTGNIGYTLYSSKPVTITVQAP
human Fc gamma receptor IIIA, polymorphism V176 (human), sequence (P08637 17-208 F176V): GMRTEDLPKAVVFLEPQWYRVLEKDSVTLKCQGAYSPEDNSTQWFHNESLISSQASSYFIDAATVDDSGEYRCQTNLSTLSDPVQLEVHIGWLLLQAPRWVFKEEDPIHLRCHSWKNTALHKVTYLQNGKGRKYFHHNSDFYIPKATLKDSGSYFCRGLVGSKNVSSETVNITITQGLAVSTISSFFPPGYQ
human Fc gamma receptor IIIA, polymorphism F176 (human), sequence (P08637 17-208): as the sequence (P08637 17-208 F176V) above, with V160F counted along it

For the substance CIS43 (antibody), the results for the Kd in [1] and in assay [2] were 326 nM and 54.2 nM, respectively.

In the case of CIS43 human monoclonal antibody, the Kd came out at 3130 nM in assay [3]; 1030 nM in assay [4]; 3840 nM in [5]; 1280 nM in assay [6]; 1480 nM in assay [7]; 14.8 nM in assay [8]. Moreover, the figures for the Kd in [9] and in assay [10] were 652 nM and 1740 nM, respectively. Also, the koff in [3] came out at 0.812 s⁻¹; in assay [4], 0.442 s⁻¹; in assay [5], 0.676 s⁻¹; in [6] it was 0.419 s⁻¹; in [7] it was 0.514 s⁻¹; in assay [8], 0.00278 s⁻¹. Besides, the koff in assay [9] was found to be 0.105 s⁻¹; in [10], 0.273 s⁻¹. For the same substance, the association rate constant (kon) in [3] stood at 259000 M⁻¹ s⁻¹; in assay [4] it was 430000 M⁻¹ s⁻¹; in assay [5] it was 176000 M⁻¹ s⁻¹; in assay [6] it was 327000 M⁻¹ s⁻¹; in assay [7], 348000 M⁻¹ s⁻¹; in [8], 187000 M⁻¹ s⁻¹. The on-rate constant (kon) in assay [9] was determined as 161000 M⁻¹ s⁻¹; in [10] it was 157000 M⁻¹ s⁻¹.

With “CIS43LS (CIS43 with the LS mutations M451L/N457S in the CH3 domain of the Fc region) (antibody)”, the Kd in assay [3] was found to be 3800 nM; in assay [4], 1190 nM; in assay [5], 2490 nM; in assay [6], 854 nM; in assay [7] it was 764 nM; in [8] it was 15.8 nM. The Kd in [9] was 550 nM. In addition, the koff amounted to 0.874 s⁻¹ in assay [3]; 0.356 s⁻¹ in assay [4]; 0.598 s⁻¹ in assay [5]; 0.25 s⁻¹ in assay [6]; 0.349 s⁻¹ in assay [7]; 0.00308 s⁻¹ in assay [8]. The dissociation rate constant (koff) in [9] turned out to be 0.0433 s⁻¹. The kon in [3] was determined as 230000 M⁻¹ s⁻¹; in assay [4], 300000 M⁻¹ s⁻¹; in [5] it was 240000 M⁻¹ s⁻¹; in assay [6] it was 293000 M⁻¹ s⁻¹; in assay [7] it was 457000 M⁻¹ s⁻¹; in [8], 194000 M⁻¹ s⁻¹. For the same substance, in [9], the kon worked out at 78700 M⁻¹ s⁻¹.

In the case of CIS43LS (antibody), the Kd in [1] stood at 25.1 nM; in assay [2], 6.2 nM; in [11], 262 nM; in assay [12], 234 nM.
